Residue numbers refer to the chain shown, from its start.
T1: human TREM2 (human, UniProt Q9NZC2 19-230)
T1 sequence: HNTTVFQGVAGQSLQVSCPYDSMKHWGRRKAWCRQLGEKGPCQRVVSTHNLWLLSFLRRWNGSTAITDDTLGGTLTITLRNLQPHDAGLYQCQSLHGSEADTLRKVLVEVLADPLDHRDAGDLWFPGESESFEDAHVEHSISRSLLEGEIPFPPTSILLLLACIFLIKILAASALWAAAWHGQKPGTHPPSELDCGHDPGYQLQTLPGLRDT

T2: cynomolgus TREM2 (cynomolgus, UniProt A0A2K5UY34 49-260)
T2 construct: also called cynoTREM2; cTREM2
T2 sequence: T1 sequence with A10E, W60R, L89F, F125V, I157V, L193P, Y201H

T3: mouse TREM2 (mouse, UniProt Q99NH8 19-227)
T3 construct: whole, on cells
T3 sequence (looked up): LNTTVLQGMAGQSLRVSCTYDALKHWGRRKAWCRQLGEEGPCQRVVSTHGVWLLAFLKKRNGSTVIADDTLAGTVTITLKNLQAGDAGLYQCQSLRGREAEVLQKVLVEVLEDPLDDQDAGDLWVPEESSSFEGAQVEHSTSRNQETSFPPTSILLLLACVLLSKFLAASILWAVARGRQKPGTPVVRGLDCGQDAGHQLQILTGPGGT

B1: 6E7 (antibody, V domains shown)
VH: EVQLVQSGAEVKKPGESLKISCKGSGYSFTSYWIAWVRQMPGKGLEWMGIIYPGDSDTRYSPSFQGQVTISADKSISTAYLQWSSLKASDTAMYFCARQRTFYYDSSDYFDYWGQGTLVTVSS
VL: DIQMTQSPSSVSASVGDRVTITCRASQGISSWLAWYQQKPGKAPKLLIYAASSLQNGVPSRFSGSGSGTDFTLTISSLQPEDFATYFCQQADSFPRTFGQGTKLEIK
B2: Ab52 (antibody, V domains shown)
VH: QVQLVQSGAEVKKPGASVKVSCKASGYTFTSYYIHWVRQAPGQGLEWMGIINPSGGSTSYAQKFQGRVTMTRDTSTSTVYMELSSLRSEDTAVYYCAREADDSSGYPLGLDVWGQGTMVTVSS
VL: EIVMTQSPATLSVSPGERATLSCRASQSVSSNLAWYQQKPGQAPRLLIYGASTRATGIPARFSGSGSGTEFTLTISSLQSEDFAVYYCQQVNSLPPTFGGGTKVEIK
notes: benchmark anti-TREM2 antibody from WO2016023019A2
B3: EOS006181 (antibody, V domains shown)
VH: EVQLVESGGGLVQPGRSLRLSCTASGFTFDDHAMSWFRQAPGKGLEWVGFIGSKAYGGTTEYTASVKGRFTISRDGSKSIAYLQMNSLKTEDTAVYYCARGKRYSYTYWTPAFDVWGQGTMVTVSS
VL: DIQMTQSPSSLSASVGDRVTITCQASQDITNYLNWYQQKPGKAPKLLIYDASNLETGVPSRFSGSGSGTDFTFTISSLQPEDIATYYCQQYDSYLTFGGGTKVEIK
B4: PN-37012 (antibody, V domains shown)
VH: EVQLLESGGGLVQPGGSLRLSCAASGFTFSNYYMAWVRQAPGKGLEWVSSLTNSGGSTYYADSVKGRFTISRDNSKNTLYLQMNSLRAEDTAVYYCTREWAGSGYFDYWGQGTLVTVSS
VL: DIQMTQSPSSLSASVGDRVTITCKASQNVGNNLAWYQQKPGKAPKLLIYYTSNRFTGVPSRFSGSGSGTDFTLTISSLQPEDFATYYCQRIYNSPWTFGQGTKLEIK
notes: benchmark anti-TREM2 antibody from US20190309064
B5: EOS006163 (antibody, V domains shown)
VH: QVQLVQSGAEVKKPGSSVKVSCKASGGTFAQYAISWVRQAPGQGLEWMGVIIPDSGTANYAQKFQGRVTITADESTSTAYMELSSLRSEDTAVYYCARTQENTIFDIWGQGTMVTVSS
VL: EIVLTQSPATLSLSPGERATLSCRASQSVSSYLAWFQQKPGQAPRLLIYDASNRATGIPARFSGSGSGTDFTLTISSLEPEDFAVYYCQQDYEWPITFGGGTKVEIK
B6: EOS006171 (antibody, V domains shown)
VH: QVQLVESGGGLVKPGGSLRLSCAASGFTFSDYYMSWIRQAPGKGLEWVSYISSSGSTIYYADSVKGRFTISRDNAKNSLYLQMNSLRAEDTAVYYCARLGGYYSLGPMDVWGQGTTVTVSS
VL: B5 VL with F36Y, Y92S, E93A, W94F, I96F
B7: EOS006176 (antibody, V domains shown)
VH: EVQLLESGGGLVQPGGSLRLSCAASGFTFSTHAMTWVRQAPGKGLEWVSAISANAGKTYYADSVKGRFTISRDNSKNTLYLQMNSLRAEDTAVYYCASLRGGYEVGPTFDSWGQGTLVTVSS
VL: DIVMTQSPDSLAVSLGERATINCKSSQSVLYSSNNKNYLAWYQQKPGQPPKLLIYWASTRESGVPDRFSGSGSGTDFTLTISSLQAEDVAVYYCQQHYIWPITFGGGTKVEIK
B8: EOS006178 (antibody, V domains shown)
VH: B7 VH with T31N, H32Y, A33G, T35G, S111P
VL: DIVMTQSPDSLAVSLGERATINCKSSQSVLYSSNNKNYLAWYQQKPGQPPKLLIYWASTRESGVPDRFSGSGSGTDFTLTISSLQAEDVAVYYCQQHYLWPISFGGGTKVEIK
B9: 14D3 (antibody, V domains shown)
VH: EVKLLEFGGGLVQPGGSMRLSCAASGFTFTDFYMNWIRQPAGRAPEWLGLIRNKTKGYTTEYNRSVKGRFTISRDNTQNMLYLQMNSLRPEDTATYYCARIGVNNGGSLDYWGQGVMVTVSS
VL: DILIIQSPASLTVSAGARVTMSCKSSQSLLYSENNQDYLAWYQQKPGQFPKLLIYGASNRHTGVPDRFTGSGSGTDFTLTISSVQAEDLADYYCEQTYSYPYTFGAGTKLELK

Key:
human TREM2 [1] = biological target: T1, human TREM2; experiment: cell-based or functional assay
cynomolgus TREM2 [2] = biological target: T2, cynomolgus TREM2; experiment: MFI on CHO cells over-expressing cynoTREM2-DAP12
Procedure: (§1) Cross-reactivity of anti-TREM2 antibodies to cynomolgus TREM2 (cynoTREM2) was assessed using CHO over-expressing cynoTREM2-DAP12 (Table 22). Benchmark antibodies, AB52 and PN-37012, were examined for comparison.

mouse TREM2 [3] = biological target: T3, mouse TREM2; experiment: MFI on CT26 cells over-expressing mouse TREM2 and DAP12
Procedure: (§2) Cross-reactivity to mouse TREM2 was assessed using CT26 cells over-expressing mouse TREM2 and DAP12 (Table 23). Eight anti-TREM2 antibodies and both benchmark antibodies were considered cross-reactive to mouse TREM2 (MFI higher than isotype control and fold change of CT26-TREM2 over the CT26 Empty Vector higher than 5). The remaining anti-TREM2 antibodies were considered as being low to not cross-reactive (fold change less than 5). EOS006171 was not tested due to clear non-cross-reactivity preliminary data by octet (data not shown).

cynomolgus TREM2 [4] = biological target: T2, cynomolgus TREM2; experiment: MFI on CHO cells over-expressing cynoTREM2-DAP12 vs CHO empty vector
Procedure: as §1

mouse TREM2 [5] = biological target: T3, mouse TREM2; experiment: MFI on CT26 cells over-expressing mouse TREM2 and DAP12 vs CT26 empty vector
Procedure: as §2

human TREM2 [6] = biological target: T1, human TREM2; experiment: cell-based or functional assay; remark: listed apart in the source
human TREM2 [7] = biological target: T1, human TREM2; experiment: flow cytometry, M2a-like macrophages
Procedure: (§3) M2a-like macrophages were produced in vitro from monocytes of healthy donors. Briefly, after PBMCs isolation from peripheral blood using Lymphoprep™ gradient, CD14+ cells were purified and seeded in presence of MCSF 50 ng/ml for 6 days. Macrophages were then cultured with IL-13 and IL-4 at a concentration of 20 ng/ml for two additional days and then used for a cell-based binding assay.
(§4) M2a-like macrophages were incubated with anti-TREM2 antibodies (dose-response curve with 11 concentrations from 10 μg/ml to 0.0001 μg/ml) for 30 min at 4° C. After washing, bound antibodies were detected with a secondary anti-human IgG Fc PE-labelled for 30 min at 4° C. Fluorescence intensity was measured by flow cytometry. Equilibrium dissociation constant (kD) was then calculated for each antibody using median MFI normalized over isotype control.

human TREM2 [8] = biological target: T1, human TREM2; experiment: flow cytometry, THP-1 WT cells, 10 ug/ml
Procedure: (§5) In order to test specificity of selected antibodies to TREM2, binding was tested by flow cytometry on THP-1 TREM2 KO (clone, produced using CRISPR technology in house) and on THP-1 WT. Cells were incubated with selected anti-TREM2 antibodies (final concentration of 10 μg/ml) for 30 min at 4° C. After washing, bound antibodies were detected with a secondary anti-human IgG Fc PE-labelled for 30 min at 4° C. Fluorescence intensity was measured by flow cytometry.

human TREM2 [9] = biological target: T1, human TREM2; experiment: flow cytometry, THP-1 WT vs THP-1 TREM2 KO cells, 10 ug/ml
Procedure: as §5

human TREM2 [10] = biological target: T1, human TREM2; experiment: flow cytometry, competition with LDL-Alexafluor-488 on CHO cells overexpressing human TREM2/DAP12
Procedure: Exemplary anti-TREM2 antibodies were tested in order to characterize their ability to enter in competition with TREM2 ligand, LDL, on CHO overexpressing human TREM2/DAP12. Antibodies (dose response curves from 66.65 nM to 0.07 nM) were incubated for 30 min with cells in a soluble fashion, followed by an incubation with LDL coupled with Alexafluor-488 (at 1 μg/mL final) for 30 min. Finally, after 2 washes, cells were acquired on flow cytometer. The median MFI of Alexafluor-488 was used to plot the graphs. Benchmark antibody MOR044746 was used as positive control.

human TREM2 [11] = biological target: T1, human TREM2; experiment: flow cytometry, M2a-like macrophages, dose-response
Procedure: as §3, §4

Row | Binder | Fold over isotype control at 66 nM (human TREM2 [1]) [fold] | pSYK/TotSYK EC50 (nM) (human TREM2 [1]) | Binding to CHO-cTREM2 MFI (cynomolgus TREM2 [2]) [MFI] | Binding to CT26-TREM2 MFI (mouse TREM2 [3]) [MFI] | MFI Fold change (CHO-cTREM2 over CHO-EV) (cynomolgus TREM2 [4]) [fold] | MFI Fold change (CT26-TREM2 over CT26-EV) (mouse TREM2 [5]) [fold] | Stabilization ratio (Mean of 2 replicates) (human TREM2 [6]) [ratio] | Fold over isotype (human TREM2 [7]) [fold] | Fold over isotype control THP1 WT (human TREM2 [8]) [fold] | MFI Fold change (THP-1 WT over THP-1 TREM2 KO) (human TREM2 [9]) [fold] | IC50 (human TREM2 [10]) [nM] | Kd (human TREM2 [11]) [nM]
1 | B1 | 1.93 | 1.29 |  |  |  |  |  |  |  |  |  | 
2 | B2 |  |  | 25500 | 8810 | 602 | 33.6 |  |  |  |  |  | 
3 | B3 | 2.84 | 1.09 | 11900 | 4690 | 251 | 17.4 | 0.69 | 9.3 | 3.5 | 4.8 | 0.28 | 
4 | B4 |  |  |  | 6750 |  | 21 |  |  |  |  |  | 
5 | B5 | 0.701 |  | 17700 |  | 395 |  | 0.42 | 13 | 2.7 | 5.1 | 0.169 | 0.15
6 | B6 | 2.4 | 9.7 | 13400 |  | 495 |  | 0.46 |  | 6.6 | 4.3 |  | 2.8
7 | B7 | 2.65 | 4.05 | 20400 | 6340 | 388 | 15 | 0.6 | 13.1 | 2.7 | 3.4 |  | 
8 | B8 | 2.51 | 3.89 | 19700 | 6790 | 334 | 15.8 | 0.64 | 5.4 | 2.1 | 2.4 |  | 
9 | B9 |  |  |  |  |  |  | 0.96 |  |  |  |  | 

Source: patent US20250282868A1 (ITEOS BELGIUM, published 2025)
